B1: 25A10-V1 CAR (other)
chain: EVQLQQSGAELVRPGASVKLSCTASGFNIKDSLIHWVKQRPEQGLEWIGWIDPEDDKTKYAPKFQDKATLTADTSSNTAYLQLSTLTSEDTAIYYCVSRYINYYFAYWGQGTTLTVSSGGGGSGGGGSGGGGSDIVMTQSPSSLTVTAGEKVTMSCKSSQSLLHSGNQRNYLTWYQQKPGQPPKLLIYWASTRESGVPDRFTGSGSGTDFTLTISSVQAEDLAVYYCQNDYDYPYTFGGGTKLEIKGLAVSTISSFFPPGYQIYIWAPLAGTCGVLLLSLVITLYCKRGRKKLLYIFKQPFMRPVQTTQEEDGCSCRFPEEEEGGCELRVKFSRSADAPAYQQGQNQLYNELNLGRREEYDVLDKRRGRDPEMGGKPRRKNPQEGLYNELQKDKMAEAYSEIGMKGERRRGKGHDGLYQGLSTATKDTYDALHMQALPPR
notes: signal peptide left out here
B2: 13F11-V2 CAR (other)
chain: QIQLVQSGPELKKPGETVKISCKASGYTFKKYGMNWVKQAPGKGLKWMGWINTNTGEPTYAEEFKGRFAFSLETSASTAYLQINNLKNEDTATYFCARWYYGSTPSSYTMDYWGQGTSVTVSSGGGGSGGGGSGGGGSETTVTQSPASLSVATGEKVTIRCITSTDIDDDMNWYQQKPGEPPKVLISEGNTLRPGVPSRFSSSGYGTDFVFTIENTLSEDVADYYCLQSNNMPYTFGGGTKLEIKTTTPAPRPPTPAPTIASQPLSLRPEACRPAAGGAVHTRGLDFACDIYIWAPLAGTCGVLLLSLVITLYCKRGRKKLLYIFKQPFMRPVQTTQEEDGCSCRFPEEEEGGCELRVKFSRSADAPAYQQGQNQLYNELNLGRREEYDVLDKRRGRDPEMGGKPRRKNPQEGLYNELQKDKMAEAYSEIGMKGERRRGKGHDGLYQGLSTATKDTYDALHMQALPPR
notes: Chimeric antigen receptor on T cells; signal peptide left out here
B3: 25A10-V2 CAR (other)
chain: EVQLQQSGAELVRPGASVKLSCTASGFNIKDSLIHWVKQRPEQGLEWIGWIDPEDDKTKYAPKFQDKATLTADTSSNTAYLQLSTLTSEDTAIYYCVSRYINYYFAYWGQGTTLTVSSGGGGSGGGGSGGGGSDIVMTQSPSSLTVTAGEKVTMSCKSSQSLLHSGNQRNYLTWYQQKPGQPPKLLIYWASTRESGVPDRFTGSGSGTDFTLTISSVQAEDLAVYYCQNDYDYPYTFGGGTKLEIKTTTPAPRPPTPAPTIASQPLSLRPEACRPAAGGAVHTRGLDFACDIYIWAPLAGTCGVLLLSLVITLYCKRGRKKLLYIFKQPFMRPVQTTQEEDGCSCRFPEEEEGGCELRVKFSRSADAPAYQQGQNQLYNELNLGRREEYDVLDKRRGRDPEMGGKPRRKNPQEGLYNELQKDKMAEAYSEIGMKGERRRGKGHDGLYQGLSTATKDTYDALHMQALPPR
notes: as for B2
B4: 28F5-V1 CAR (other)
chain: QIQLVQSGPELKKPGETVKISCKASGYTFTKYGMNWVKQTPGKGLKWMGWINTNSGEPTYAEEFKGRFAFSLETSASTAYLQINNLKNEDTATYFCARGAYYRYDGEVSYYAMDYWGQGTSVTVSSGGGGSGGGGSGGGGSQIILTQSPAIMSASLGERVTMTCTATSSLSSSYLHWYQQKPGSSPKLWIYSTSHLASGVPARFSGGGSGTSYSLTISSMEAEDAATYYCHQYHLSPYTFGGGTKLEIKGLAVSTISSFFPPGYQIYIWAPLAGTCGVLLLSLVITLYCKRGRKKLLYIFKQPFMRPVQTTQEEDGCSCRFPEEEEGGCELRVKFSRSADAPAYQQGQNQLYNELNLGRREEYDVLDKRRGRDPEMGGKPRRKNPQEGLYNELQKDKMAEAYSEIGMKGERRRGKGHDGLYQGLSTATKDTYDALHMQALPPR
notes: as for B2
B5: 16B5-V2 CAR (other)
chain: QAYLQQSGAELVRSGASVKMSCKASGYTFTSYNLHWVKQTPGQGLEWIGYIYPGNGGTNYNQKFKGKATLTADTSSSTAYMQISSLTSEDSAVYFCARGGIYYYGSSLDYWGQGTTLTVSSGGGGSGGGGSGGGGSNIVLTQSPASLAVSLGQRATISCRASESVDNYGTTFMYWYQQKPGQPPKLLIYLASNLESGVPARFSGSGSGTDFTLTIDPVEADDAATYYCQQNKEDPWTFGGGTKLEIKTTTPAPRPPTPAPTIASQPLSLRPEACRPAAGGAVHTRGLDFACDIYIWAPLAGTCGVLLLSLVITLYCKRGRKKLLYIFKQPFMRPVQTTQEEDGCSCRFPEEEEGGCELRVKFSRSADAPAYQQGQNQLYNELNLGRREEYDVLDKRRGRDPEMGGKPRRKNPQEGLYNELQKDKMAEAYSEIGMKGERRRGKGHDGLYQGLSTATKDTYDALHMQALPPR
B6: 13F11-V1 CAR (other)
chain: QIQLVQSGPELKKPGETVKISCKASGYTFKKYGMNWVKQAPGKGLKWMGWINTNTGEPTYAEEFKGRFAFSLETSASTAYLQINNLKNEDTATYFCARWYYGSTPSSYTMDYWGQGTSVTVSSGGGGSGGGGSGGGGSETTVTQSPASLSVATGEKVTIRCITSTDIDDDMNWYQQKPGEPPKVLISEGNTLRPGVPSRFSSSGYGTDFVFTIENTLSEDVADYYCLQSNNMPYTFGGGTKLEIKGLAVSTISSFFPPGYQIYIWAPLAGTCGVLLLSLVITLYCKRGRKKLLYIFKQPFMRPVQTTQEEDGCSCRFPEEEEGGCELRVKFSRSADAPAYQQGQNQLYNELNLGRREEYDVLDKRRGRDPEMGGKPRRKNPQEGLYNELQKDKMAEAYSEIGMKGERRRGKGHDGLYQGLSTATKDTYDALHMQALPPR
B7: GMB005-V1 CAR (other)
chain: EVQLLESGGGLVQPGGSLRLSCAVSGFTFNSFAMSWVRQAPGKGLEWVSAISGSGGGTYYADSVKGRFTISRDNSKNTLYLQMNSLRAEDTAVYFCAKDKILWFGEPVFDYWGQGTLVTVSSASGGGGSGGGGSGGGGSEIVLTQSPATLSLSPGERATLSCRASQSVSSYLAWYQQKPGQAPRLLIYDASNRATGIPARFSGSGSGTDFTLTISSLEPEDFAVYYCQQRSNWPPTFGQGTKVEIKGLAVSTISSFFPPGYQIYIWAPLAGTCGVLLLSLVITLYCKRGRKKLLYIFKQPFMRPVQTTQEEDGCSCRFPEEEEGGCELRVKFSRSADAPAYQQGQNQLYNELNLGRREEYDVLDKRRGRDPEMGGKPRRKNPQEGLYNELQKDKMAEAYSEIGMKGERRRGKGHDGLYQGLSTATKDTYDALHMQALPPR
B8: 16B5-V1 CAR (other)
chain: QAYLQQSGAELVRSGASVKMSCKASGYTFTSYNLHWVKQTPGQGLEWIGYIYPGNGGTNYNQKFKGKATLTADTSSSTAYMQISSLTSEDSAVYFCARGGIYYYGSSLDYWGQGTTLTVSSGGGGSGGGGSGGGGSNIVLTQSPASLAVSLGQRATISCRASESVDNYGTTFMYWYQQKPGQPPKLLIYLASNLESGVPARFSGSGSGTDFTLTIDPVEADDAATYYCQQNKEDPWTFGGGTKLEIKGLAVSTISSFFPPGYQIYIWAPLAGTCGVLLLSLVITLYCKRGRKKLLYIFKQPFMRPVQTTQEEDGCSCRFPEEEEGGCELRVKFSRSADAPAYQQGQNQLYNELNLGRREEYDVLDKRRGRDPEMGGKPRRKNPQEGLYNELQKDKMAEAYSEIGMKGERRRGKGHDGLYQGLSTATKDTYDALHMQALPPR
B9: 13F11-V3 CAR (other)
chain: QIQLVQSGPELKKPGETVKISCKASGYTFKKYGMNWVKQAPGKGLKWMGWINTNTGEPTYAEEFKGRFAFSLETSASTAYLQINNLKNEDTATYFCARWYYGSTPSSYTMDYWGQGTSVTVSSGGGGSGGGGSGGGGSETTVTQSPASLSVATGEKVTIRCITSTDIDDDMNWYQQKPGEPPKVLISEGNTLRPGVPSRFSSSGYGTDFVFTIENTLSEDVADYYCLQSNNMPYTFGGGTKLEIKEPKSPDKTHTCPPCPAPPVAGPSVFLFPPKPKDTLMIARTPEVTCVVVDVSHEDPEVKFNWYVDGVEVHNAKTKPREEQYNSTYRVVSVLTVLHQDWLNGKEYKCKVSNKALPAPIEKTISKAKGQPREPQVYTLPPSRDELTKNQVSLTCLVKGFYPSDIAVEWESNGQPENNYKTTPPVLDSDGSFFLYSKLTVDKSRWQQGNVFSCSVMHEALHNHYTQKSLSLSPGKIYIWAPLAGTCGVLLLSLVITLYCKRGRKKLLYIFKQPFMRPVQTTQEEDGCSCRFPEEEEGGCELRVKFSRSADAPAYQQGQNQLYNELNLGRREEYDVLDKRRGRDPEMGGKPRRKNPQEGLYNELQKDKMAEAYSEIGMKGERRRGKGHDGLYQGLSTATKDTYDALHMQALPPR

Target: T1, CD38-Fc protein (produced by LakePharma) (UniProt P28907 43-300, limits assumed)
T1 construct: Staining reagent for CAR detection by flow cytometry; also called CD38-Fc fusion protein; not shown: Fc part
Assay: flow cytometry, CD38-Fc fusion protein staining of purified CD38-deficient T cells transfected with CAR mRNA (FIG. 15)
Method: T cells were purified from buffy coat samples and activated using anti-CD3/CD28 coated beads and IL-2. CD38-1 TALEN mRNA was transfected in T cells at day 4 after activation, 6 days later CD38 negative cells were purified by using magnetic separation (Miltenyi). The day after, CAR mRNAs were transfected. The CAR expression and degranulation capacity of CART cells were assessed 24 hours after the transfection. CAR expression and cytotoxic capacity of CART cells were assessed 48 hours after the transfection.
All CARs were detected 24 h after transfection except the 25A10-V3 However, the latter expressed anti-CD38 CAR above the background. The 13F11-V2, 25A10-V1, 25A10-V2 and 28F5-V2 were highly expressed (more than 80%).

| % of T cells stained by CD38-Fc (CAR expression) [%] | Binder |
| --- | --- |
| > 80 | B1 |
| > 80 | B2 |
| > 80 | B3 |

Target: CD38 antigen on the surface of cells (U266 CD38+, MOLP8, Daudi, T-ALL cell lines, activated T cells) (human, UniProt P28907 1-300)
Assay: cell-based or functional assay

| ratio of degranulation against U266 CD38+ and U266 CD38- [ratio] | Binder |
| --- | --- |
| > 2 | B4 |
| > 2 | B1 |
| > 2 | B5 |
| > 2 | B6 |
| > 2 | B7 |
| > 2 | B8 |
| > 2 | B9 |

Target: T1, CD38-Fc protein (produced by LakePharma)
Assay: flow cytometry, CD38 Fc staining of CD38/TRAC double KO T cells transduced with rLV (FIG. 27C)
Method: The parameters are the following: T cells were activated by using Dynabeads CD3-CD28, the culture were made by using medium Xvivo+5% human serum heat inactivated+IL-2 20 ng/ml, a double KO (DKO) CD38-TRAC was performed by using a ratio of 2 μg TALEN mRNA per million of cells (5 million cells/cuvette); the transduction was performed by using rLV from Vectalys(France) at a MOI of 5.
The screening of the 4 CARs 25A10-v1, -v2, 28F5-v1 and -v2 after rLV transduction in DKO T cells has shown that all the CARs were expressed at the T cell surface with a high efficiency (>40%) and 3 of them above 80% (FIG. 27C). RQR8 expression was correlated with CAR expression (FIG. 27A). Most of the T cells were CD38 negative when T cells have been transduced by CD38 CARs (FIG. 27A). It is shown also that 60-85% of T cells endowed with the above 4 CARs were DKO TRAC/CD38 (FIG. 27B).

| % of T cells stained by CD38-Fc (CAR expression) [%] | Binder |
| --- | --- |
| > 40 | B4 |
| > 40 | B1 |
| > 40 | B3 |
